Laboratory results: article PMC10279526, “Structural basis of centromeric cohesion protection” (Nature Structural & Molecular Biology, 2023)
Non-standard residues stand in square brackets, D forms with d. No end group written: not given here. pT = C[C@@H](OP(=O)(O)O)[C@H](N)C(=O)O

B1: SGO1 peptide spanning amino acids 331–349 containing phosphorylated pT346 (SNDAYNFNLEEGVHLpTPFR) (peptide)
peptide: SNDAYNFNLEEGVHL[pT]PFR
notes: Shugoshin 1 (SGO1), human, residues 331-349, T346 phosphorylated; also called T346-phosphorylated SGO1 fragment; SGO1 331–349 pT346
B2: SGO1 peptide spanning amino acids 331–341 (SNDAYNFNLEE) (peptide)
peptide: SNDAYNFNLEE
notes: Shugoshin 1 (SGO1), human, residues 331-341 with the YxF motif; also called SGO1 331–341; nonphosphorylated SGO1 peptide

Target: T1, SA2–SCC1 complex (SA2 amino acid residues 80–1060 with SCC1 amino acid residues 281–420) (UniProt Q8N3U4 80-1060; O60216 281-420)
T1 construct: SA2 (STAG2), cohesin subunit, residues 80-1060; SCC1 (RAD21, Mcd1), cohesin subunit, residues 281-420; also called cohesin subcomplex SA2–SCC1; CES
T1 sequence (looked up) 1: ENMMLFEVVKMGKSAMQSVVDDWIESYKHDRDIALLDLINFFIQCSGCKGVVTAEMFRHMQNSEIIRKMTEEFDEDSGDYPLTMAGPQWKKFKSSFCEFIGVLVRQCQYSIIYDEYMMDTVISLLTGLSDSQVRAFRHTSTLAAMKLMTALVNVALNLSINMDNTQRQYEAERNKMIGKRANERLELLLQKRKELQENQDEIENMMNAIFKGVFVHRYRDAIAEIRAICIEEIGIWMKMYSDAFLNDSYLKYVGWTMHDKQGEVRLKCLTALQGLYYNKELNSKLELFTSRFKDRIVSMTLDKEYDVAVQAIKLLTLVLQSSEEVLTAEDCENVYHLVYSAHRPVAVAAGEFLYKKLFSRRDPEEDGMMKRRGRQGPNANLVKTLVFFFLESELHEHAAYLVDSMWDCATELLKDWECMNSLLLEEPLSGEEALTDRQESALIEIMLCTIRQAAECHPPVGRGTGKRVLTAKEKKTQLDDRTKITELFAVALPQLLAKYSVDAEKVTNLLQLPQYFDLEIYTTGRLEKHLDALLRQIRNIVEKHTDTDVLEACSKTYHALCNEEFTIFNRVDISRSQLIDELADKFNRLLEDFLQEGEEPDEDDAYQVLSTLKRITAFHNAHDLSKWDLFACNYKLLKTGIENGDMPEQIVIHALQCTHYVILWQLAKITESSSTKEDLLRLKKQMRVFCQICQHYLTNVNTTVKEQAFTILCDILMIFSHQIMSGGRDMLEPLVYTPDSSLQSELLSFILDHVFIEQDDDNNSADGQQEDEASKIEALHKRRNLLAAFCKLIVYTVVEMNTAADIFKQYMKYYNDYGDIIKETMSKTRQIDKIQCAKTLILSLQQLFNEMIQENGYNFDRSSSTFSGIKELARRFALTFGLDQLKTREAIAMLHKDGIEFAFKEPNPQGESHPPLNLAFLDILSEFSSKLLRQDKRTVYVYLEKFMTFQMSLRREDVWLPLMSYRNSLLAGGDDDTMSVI
T1 sequence (looked up) 2: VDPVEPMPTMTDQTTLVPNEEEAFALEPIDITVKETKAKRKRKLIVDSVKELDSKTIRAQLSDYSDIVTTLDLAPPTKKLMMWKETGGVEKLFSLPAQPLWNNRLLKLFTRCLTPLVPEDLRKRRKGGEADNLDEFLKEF
Assay: ITC; performed as described previously (ref. 21); data analysed with Origin 7.0; SGO1 peptides with SA2–SCC1
Conditions: both partners purified

Binder	Kd
B1	2.3 ± 0.4 µM
B2	13.5 ± 1.4 µM
